Molecular target: the molecule itself
Assay: cryo-EM structure

B1: L-protein (homodimeric BchL protein, electron donor component of DPOR) (natural protein, Rhodobacter sphaeroides, UniProt Q9RFD6 1-297, looked up)
chain: MSPKDLTIPTGADGEGSVQVHLDEADKITGAKVFAVYGKGGIGKSTTSSNLSAAFSILGKRVLQIGCDPKHDSTFTLTGSLVPTVIDVLKDVDFHPEELRPEDFVFEGFNGVMCVEAGGPPAGTGCGGYVVGQTVKLLKQHHLLDDTDVVIFDVLGDVVCGGFAAPLQHADQAVVVTANDFDSIYAMNRIIAAVQAKSKNYKVRLAGCVANRSRATDEVDRFCKETNFRRLAHMPDLDAIRRSRLKKKTLFEMDEDQDVLAARAEYIRLAESLWRGLDPIDPHSLPDRDIFELLGFD
stoichiometry N: 2

Reference: publication PMC12022308 (Nature Communications, 2025)
